Tests used:
[1] = molecular target: T1, P-Ser-HPr(His)6 from B. subtilis, P08877
T1 chain: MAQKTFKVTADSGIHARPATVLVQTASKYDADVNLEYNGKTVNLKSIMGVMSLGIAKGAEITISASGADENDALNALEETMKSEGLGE

[2] = molecular target: T2, HPr(His)6 from B. subtilis, P08877
T2 chain: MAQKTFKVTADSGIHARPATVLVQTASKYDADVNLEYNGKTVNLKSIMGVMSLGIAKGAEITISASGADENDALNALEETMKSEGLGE

B1: His-tagged L. casei HprK (protein)
chain: MADSVTVRQLVKATKLEVYSGEEYLDQRQVVLSDISRPGLELTGYFNYYPHERIQLFGRTEISFARNMSSEERLLILKRMATEDTPAFLVSRGLEAPAEMITAATAAHIPVLGSRLPTTRLSSLITEYLDSQLAERRSMHGVLVDIYGLGVLITGDSGVGKSETALELVQRGHRLIADDRVDVYQQDEQTIVGAAPPILSHLLEIRGLGIIDVMNLFGAGAVREDTTISLIVHLENWTPDKTFDRLGSGEQTQLIFDVPVPKITVPVKVGRNLAIIIEVAAMNFRAKSMGYDATKTFEKNLNHLIEHNEETDQNSSGDK
P-Ser-HPr phosphatase activity (non-denaturing gel) [1]: HprK of L. casei was indeed found to be bifunctional | HPr kinase activity (ATP-dependent HPr phosphorylation, non-denaturing gel) [2]: HprK of L. casei was indeed found to be bifunctional
